Laboratory results reported in PMC13379313, “Clocked stepping of an artificial protein walker along a DNA track”.

Key:
MetJ = molecular target: T1, MetJ (UniProt P0A8U6 2-105, Q45K); assay: SPR; SAM; SPR: 1 mM SAM, 0.4 mM CoCl2 or 0.5 mM Trp, 100 ul/min, streptavidin CM5 chip; running buffer, pH and temperature not in material (DNA annealed in 25 mM HEPES pH 7.4, 200 mM KCl, 5 mM MgCl2); details: protein: recombinant; tags: 8xHis, TEV-cleaved; chain copies: 2; label: 3' biotin on anchor strand S4 (SPR); 5' overhang 14 nt of strand 1, annealed to biotin anchor S4 in SPR
T1 sequence: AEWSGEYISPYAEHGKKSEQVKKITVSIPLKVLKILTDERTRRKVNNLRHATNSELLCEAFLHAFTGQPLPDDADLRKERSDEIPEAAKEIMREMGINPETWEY

TrpR = TrpR (UniProt P0A881 2-108); assay: SPR; Trp; SPR: 1 mM SAM, 0.4 mM CoCl2 or 0.5 mM Trp, 100 ul/min, streptavidin CM5 chip; running buffer, pH and temperature not in material (DNA annealed in 25 mM HEPES pH)

Binder | Kd (MetJ) [nM] | Kd (TrpR) [nM]
metJ single site (NR139 top/bottom) (dsDNA) DNA 1: CCACGCCCTAAGGTATGCTAGTTTGAGACGTCTCAAAACAGGA DNA 2: TCCTGTTTTGAGACGTCTCAAACTAGCAT | 4 ± 0.4 | –
trpR single site (NR206/NR207) (dsDNA) DNA 1: CCACGCCCTAAGGTGAGCATAGTGGTACTCGCTAGCGAGTACCTCTGACTTC DNA 2: GAAGTCAGAGGTACTCGCTAGCGAGTACCACTATGCTC | – | 48
